In patent publication US20090311183 (published 2009):
Like-named read-outs stand apart in the source and are kept apart here.

How the values were obtained:
Assay in all cases: SPR
human MMP-12 [1] = molecular target: human MMP-12 (human)
mouse MMP-12 = mouse MMP-12 (mouse)
human MMP-12 [2] = molecular target: human MMP-12 (human); remark: listed apart in the source

Sequence of human MMP-12 (human) (B2R9X8 whole entry): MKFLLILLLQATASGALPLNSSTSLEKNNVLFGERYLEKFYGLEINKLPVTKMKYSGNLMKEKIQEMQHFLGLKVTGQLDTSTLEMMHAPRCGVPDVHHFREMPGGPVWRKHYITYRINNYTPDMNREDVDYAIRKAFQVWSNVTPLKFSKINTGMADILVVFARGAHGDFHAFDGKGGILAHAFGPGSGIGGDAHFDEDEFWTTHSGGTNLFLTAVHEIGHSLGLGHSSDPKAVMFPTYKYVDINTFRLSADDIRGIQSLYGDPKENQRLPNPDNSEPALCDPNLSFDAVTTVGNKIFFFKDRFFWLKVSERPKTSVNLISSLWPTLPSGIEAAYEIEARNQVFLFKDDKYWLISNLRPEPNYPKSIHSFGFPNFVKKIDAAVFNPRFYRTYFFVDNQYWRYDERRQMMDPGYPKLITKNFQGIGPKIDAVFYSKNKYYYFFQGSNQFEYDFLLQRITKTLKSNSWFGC
Sequence of mouse MMP-12 (mouse) (chain, as listed by the source): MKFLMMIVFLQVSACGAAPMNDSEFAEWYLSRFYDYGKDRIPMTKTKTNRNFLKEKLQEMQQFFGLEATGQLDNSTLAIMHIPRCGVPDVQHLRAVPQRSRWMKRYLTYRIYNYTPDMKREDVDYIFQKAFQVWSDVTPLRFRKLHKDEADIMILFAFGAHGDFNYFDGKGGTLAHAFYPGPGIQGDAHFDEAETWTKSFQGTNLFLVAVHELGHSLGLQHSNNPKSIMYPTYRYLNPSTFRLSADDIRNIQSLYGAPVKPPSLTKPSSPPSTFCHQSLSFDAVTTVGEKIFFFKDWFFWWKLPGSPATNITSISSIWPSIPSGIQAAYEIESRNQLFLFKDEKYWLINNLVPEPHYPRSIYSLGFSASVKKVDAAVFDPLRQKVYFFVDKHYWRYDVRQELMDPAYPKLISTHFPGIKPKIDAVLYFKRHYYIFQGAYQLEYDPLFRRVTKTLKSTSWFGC

| Binder | Kd (human MMP-12 [1]) | koff (mouse MMP-12) | Kd (human MMP-12 [2]) |
| --- | --- | --- | --- |
| 539B-M0121-E07 (antibody, V domains shown) VH: EVQLLESGGGLVQPGGSLRLSCAASGFTFSWYGMHWVRQAPGKGLEWVSGIVSSGGETFYADSVKGRFTISRDNSKNTLYLQMNSLRAEDTAVYYCAKDIRGVFLSGLFDHWGRGTLVTVSS VL: DIQMTQSPSSLSASVGDRVTITCRANQSIYTYLNWYQQKPGKAPELLIYAASSLQSGVPSRFSGSGSGTDFTLTISSLQPEDFATYYCQQAGIFGQGTKLEIK | 0.197 nM |  |  |
| 539B-M0118-F11 (antibody, V domains shown) VH: EVQLLESGGGLVQPGGSLRLSCAASGFTFSYYNMHWVRQAPGKGLEWVSGISPSGGTTFYADSVKGRFTISRDNSKNTLYLQMNSLRAEDTAVYYCARDITGAYSAGLFDLWGRGTLVTVSS VL: DIQMTQSPSSLSASVGDRVTITCRANQSIYTYLNWYQQKPGKAPELLIYAASSLQSGVPSRFSGSGSGTDFTLTISSLQPEDFATYYCQQAGIFGQGTKLEIK | 1.17 nM | 0.000193 s⁻¹ |  |
| 539B-M0065-H05 IgG (antibody, V domains shown) VH: EVQLLESGGGLVQPGGSLRLSCAASGFTFSYYGMGWVRQAPGKGLEWVSVISSSGGFTFYADSVKGRFTISRDNSKNTLYLQMNSLRAEDTAVYYCAKDIRGAYSSGLFDYWGRGTLVTVSS VL: DIQMTQSPSSLSASVGDRVTITCRANQSIYTYLNWYQQKPGKAPELLIYAASSLQSGVPSRFSGSGSGTDFTLTISSLQPEDFATYYCQQAGIFGQGTKLEIK |  |  | 2.2 nM |

The remaining lines, values ahead:

| Kd (human MMP-12 [1]) | koff (mouse MMP-12) | Kd (human MMP-12 [2]) | Binder |
| --- | --- | --- | --- |
|  | 4.84e-05 s⁻¹ |  | 539B-M0131-A06 (antibody, V domains shown) VH: EVQLLESGGGLVQPGGSLRLSCAASGFTFSWYWMHWVRQAPGKGLEWVSGISPSGGMTMYADSVKGRFTISRDNSKNTLYLQMNSLRAEDTAVYYCARDIVGPYSAGLFDYWGRGTLVTVSS VL: DIQMTQSPSSLSASVGDRVTITCRANQSIYTYLNWYQQKPGKAPELLIYAASSLQSGVPSRFSGSGSGTDFTLTISSLQPEDFATYYCQQAGIFGQGTKLEIK |
|  |  | 0.68 nM | 539B-M0130-C12 (antibody, V domains shown) VH: EVQLLESGGGLVQPGGSLRLSCAASGFTFSEYNMHWVRQAPGKGLEWVSGIVPSGGLTHYADSVKGRFTISRDNSKNTLYLQMNSLRAEDTAVYYCARDIRGAYSAGIFDYWGRGTLVTVSS VL: DIQMTQSPSSLSASVGDRVTITCRANQSIYTYLNWYQQKPGKAPELLIYAASSLQSGVPSRFSGSGSGTDFTLTISSLQPEDFATYYCQQAGIFGQGTKLEIK |
